Assay results as given in patent US20210205365A1, “Chimeric Growth Factor Receptors” (Instil Bio (UK) Ltd., priority 2018, published 2021).

B1: WT TpoR: Wild type TpoR, SEQ ID NO: 1, 635 amino acids (protein, listed as Homo sapiens)
chain: MPSWALFMVTSCLLLAPQNLAQVSSQDVSLLASDSEPLKCFSRTFEDLTCFWDEEEAAPSGTYQLLYAYPREKPRACPLSSQSMPHFGTRYVCQFPDQEEVRLFFPLHLWVKNVFLNQTRTQRVLFVDSVGLPAPPSIIKAMGGSQPGELQISWEEPAPEISDFLRYELRYGPRDPKNSTGPTVIQLIATETCCPALQRPHSASALDQSPCAQPTMPWQDGPKQTSPSREASALTAEGGSCLISGLQPGNSYWLQLRSEPDGISLGGSWGSWSLPVTVDLPGDAVALGLQCFTLDLKNVTCQWQQQDHASSQGFFYHSRARCCPRDRYPIWENCEEEEKTNPGLQTPQFSRCHFKSRNDSIIHILVEVTTAPGTVHSYLGSPFWIHQAVRLPTPNLHWREISSGHLELEWQHPSSWAAQETCYQLRYTGEGHQDWKVLEPPLGARGGTLELRPRSRYRLQLRARLNGPTYQGPWSSWSDPTRVETATETAWISLVTALHLVLGLSAVLGLLLLRWQFPAHYRRLRHALWPSLPDLHRVLGQYLRDTAALSPPKATVSDTCEEVEPSLLEILPKSSERTPLPLCSSQAQMDYRRLQPSCLGTMPLSVCPPMAESGSCCTTHIANHSYLPLSYWQQP
modifications: MISC_FEATURE (1)..(491): TpoR Extracellular Domain; MISC_FEATURE (492)..(513): TpoR Transmembrane Domain; MISC_FEATURE (514)..(635): TpoR Cytoplasmic Domain
B2: TpoR.CD40: SEQ ID NO: 9; TpoR fused to CD40 cytoplasmic domain (protein)
chain: MPSWALFMVTSCLLLAPQNLAQVSSQDVSLLASDSEPLKCFSRTFEDLTCFWDEEEAAPSGTYQLLYAYPREKPRACPLSSQSMPHFGTRYVCQFPDQEEVRLFFPLHLWVKNVFLNQTRTQRVLFVDSVGLPAPPSIIKAMGGSQPGELQISWEEPAPEISDFLRYELRYGPRDPKNSTGPTVIQLIATETCCPALQRPHSASALDQSPCAQPTMPWQDGPKQTSPSREASALTAEGGSCLISGLQPGNSYWLQLRSEPDGISLGGSWGSWSLPVTVDLPGDAVALGLQCFTLDLKNVTCQWQQQDHASSQGFFYHSRARCCPRDRYPIWENCEEEEKTNPGLQTPQFSRCHFKSRNDSIIHILVEVTTAPGTVHSYLGSPFWIHQAVRLPTPNLHWREISSGHLELEWQHPSSWAAQETCYQLRYTGEGHQDWKVLEPPLGARGGTLELRPRSRYRLQLRARLNGPTYQGPWSSWSDPTRVETATETAWISLVTALHLVLGLSAVLGLLLLRWQFPAHYRRLRHALWPSLPDLHRVLGQYLRDTAALSPPKATVSDTCEEVEPSLLEILPKSSERTPLPLCSSQAQMDYRRLQPSCLGTMPLSVCPPMAESGSCCTTHIANHSYLPLSYWQQPKKVAKKPTNKAPHPKQEPQEINFPDDLPGSNTAAPVQETLHGCQPVTQEDGKESRISVQERQ
modifications: TpoR-CD40; MISC_FEATURE (1)..(491): TpoR Extracellular Domain; MISC_FEATURE (492)..(513): TpoR Transmembrane Domain; MISC_FEATURE (514)..(635): TpoR Cytoplasmic Domain; MISC_FEATURE (636)..(697): CD40 Cytoplasmic Domain

Key:
circulating platelets = settings: 73 healthy volunteers, higher doses; cited from earlier work
[1] = Previous attempts to modify TpoR (surface expression, activity); assay type: cell-based; settings: previously validated
Description: However attempts to modify the receptor were not always straightforward. […] Furthermore, Applicants felt that they could improve the signalling capacity of TpoR-based receptors in T-cells by including signalling components which activate JAK3, a signalling molecule involved in IL-2 signalling but not in TpoR signalling, and therefore more likely to drive IL-2 like signals in engineered cells.
Applicants therefore aimed to generate fusion receptors wherein additional domains were fused directly to the C-terminus of the TpoR IC domain. Applicants first generated a fusion between TpoR and the IL2rβ signalling domain. […] Applicants therefore took an alternative approach where a hybrid TpoR-IL2rβ signalling domain was created whereby the I2rβ signalling region was fused N- or C-terminal to TpoR signalling domain. Next Applicants generated receptors where the cytoplasmic domain of TIAF1, TLR1, CD150, IL2rγ, CD40, LMP1 and ITAM1 from CD3ζ were fused C-terminal to the TpoR signalling domain. […] Applicants also generated CrGFR consisting of TpoR extracellular and transmembrane domain fused to the cytoplasmic domain of CD28 and CD137 as Applicants felt these would provide a costimulatory growth signal upon Eltrombopag administration, sequences of these constructs are provided below.

primary human T-cells [2] = test: Eltrombopag and IL-2 on CrGFR sorted (CD110+) primary human T-cells, up to 7 days; assay type: cell-based; settings: for expansion of CrGFR cells above that with media alone: second donor (FIG. 12)
Description: (§1) FIG. 10—Analysis of Eltrombopag and IL-2 on CrGFR sorted primary human T-cells from Donor 4. Primary human T-cells from donor 4 were transduced with the WT TpoR or variant CrGFR, and enriched for expression by Miltenyi MACS technology selected for and incubated in the presence of IL2 or Eltrombopag. Cells were removed at time points up to 7 days and the number of cells expressing the receptor assessed using PE conjugated anti-CD110 antibodies, DRAQ7 viability dye and a MACSQuant analyser.
as §1, with “11—Analysis” for “10—Analysis”, “5.” for “4.”, “5” for “4”
as §1, with “12—Analysis” for “10—Analysis”, “6.” for “4.”, “6” for “4”
Paramagnetic bead sorts were conducted as per the manufacturers' instructions using either anti-PE microbeads (Miltenyi Biotec or StemCell Technologies), or T-cell isolation beads (17951: StemCell Technologies).
Next Applicants repeated the experiment but sorted the CrGFR+ cells using CD110+ selection by paramagnetic bead selection using the receptors identified from the first round of selections (FIGS. 10, 11 and 12). Applicants observed enhanced survival of T-cells engrafted with the majority of the CrGFR in all three donors. In particular Applicants saw expansion of WT-TpoR, TpOR.CD40, TpOR.IL2rγ and TpoR.LMP1-cyto cells in the second donor (FIG. 12) above that with media alone.

T-cells = settings: via administration of Tpo or Eltrombopag; cited from earlier work
ovarian TIL = test: CrGFR in ovarian TIL mixed with patient matched tumour cells; assay type: cell-based, human; settings: all three donors
Description: (§2) FIG. 14—Analysis of Chimeric recombinant Growth Factor Receptors in Ovarian TIL. Tumour Infiltrating Lymphocytes from ×3 ovarian TIL were transduced with the WT TpoR or indicated variant CrGFR and incubated in the presence of patient matched tumour cells with either Eltrombopag or no growth factors. Cells were analysed and counted at days 4 and 7 and the number of cells expressing the receptor assessed using PE conjugated anti-CD110 antibodies, DRAQ7 viability dye and a MACSQuant analyser. Graphs show counts between days 4 and 7 when recovery of TIL occurs after an initial contraction in numbers driven by tumour regulatory factors and/or activation induced cell death.
Applicants evaluated further the effect of the CrGFR in ovarian TIL. Three ovarian TIL populations were engineered to express either the WT, or TpoR.CD40, TpoR.IL2rγ or TpoR.LMP1-Cyt variant receptors and mixed with patient matched tumour cells in the presence or absence of Eltrombopag. Counts of total and CD110+ cells were made after 4 and 7 days. Applicants observed specific expansion of the CrGFR+ cells in the presence of tumour between days 4 and 7 in donors 2 and 3 with all the receptors except the TpOR.LMP1.cyt.

primary human T-cells [3] = test: Eltrombopag and IL-2 on CrGFR transduced primary human T-cells, up to 21 days; assay type: cell-based; settings: after 21 days, x3 donors, Eltrombopag
Description: (§3) FIGS. 6A-6B—Analysis of Eltrombopag and IL-2 on primary human T-cells from Donor 1. Primary human T-cells from donor 1 were transduced with the WT TpoR or variant CrGFR and incubated in the presence of IL2 or Eltrombopag. Cells were removed at time points up to 21 days and the proportion of cells expressing the receptor assessed using PE conjugated anti-CD110 antibodies and a MACSQuant analyser.
as §3, with “FIGS. 7A-7B—Analysis” for “FIGS. 6A-6B—Analysis”, “Donor 2.” for “Donor 1.”, “donor 2” for “donor 1”
as §3, with “FIGS. 8A-8B—Analysis” for “FIGS. 6A-6B—Analysis”, “Donor 3.” for “Donor 1.”, “donor 3” for “donor 1”
FIGS. 9A-9B—Selection of optimal CrGFRs for next round of analysis. Flow cytometry plots showing expression of CrGFRs in ×3 donor primary human T-cells after 21 days incubation in Eltrombopag. The receptors TpoR.CD40, TpoR.IL2rγ, TpoR.ITAM1, TpoR.A60, TpoR.LMP1-cyto and TpoR.TpoR-cyto.LMP1-cyto were chosen for future comparison with the wt TpoR.
Peripheral blood mononuclear cells were isolated from normal healthy donors before activation for 24 hours with T-cell activation and expansion beads (Invitrogen) according to the manufacturer's instructions before addition of lentiviral supernatants.
Following expansion cells were washed excessively to remove any exogenous IL2 and plated into 96-well U-bottom plates. Cells were supplemented with IL2 (Proleukin) or Eltrombopag (Stratech Scientific, Suffolk, UK). At various time points thereafter cells were either stained with a 1:400 dilution of eFlor-450 fixable viability dye (eBioscience, UK) and counted directly from the wells using a MACSQuant Cytometer, or were stained with DRAQ7 viability dye plus phycoerythrin conjugated anti-CD110 antibodies (Miltenyi Biotec, UK) and analysed using a MACSQuant cytomter. Cell viability and/or transduction level was then analysed using MACSQuantify software (Miltenyi Biotec, UK).
Next Applicants took these receptors and expressed them in primary human T-cells and exposed these cells to IL-2 or Eltrombopag. Three donor primary human T-cell populations were isolated from buffy coats and transduced with the indicated lentiviral constructs in the presence of CD3/CD28 Dynabeads. Following expansion the cells were incubated with IL-2 or Eltrombopag. Applicants saw an increase in expansion/survival of T-cells with some of the receptors in some of the donors. […] This narrowed Applicants' panel of receptors to analyse further to: TpoR.CD40, TpOR.IL2rγ, TpoR.ITAM1, TpOR.LMP1-cyt, and TpoR.TpoR-cyt-LMP1-cyt.

[4] = test system: Tumour Infiltrating Lymphocytes from TIL042; test: CrGFR in TIL042 mixed with patient matched tumour cells; assay type: cell-based, human
Description: as §2, with “FIG. 13—Analysis” for “FIG. 14—Analysis”, “in TIL042.” for “in Ovarian TIL.”, “from TIL042” for “from ×3 ovarian TIL”, “tumour lines” for “tumour cells”, “with the addition of IL2, Eltrombopag, IL-2+Eltrombopag,” for “with either Eltrombopag”
Applicants next assessed the ability of these receptors to promote survival/expansion in a model of adoptive cell therapy by engineering tumour infiltrating lymphocytes. TIL from patient TIL042 (Uveal melanoma) were engineered with the variant or wt CrGFR and mixed with patient matched tumour cells (CTUM42.1). On days 4 and 7 counts were made of the total cells as well as the CD110+ cells. Applicants found an initial decline in cell numbers, probably driven by AICD or intrinsic inhibitory factors. However between days 4 and 7 Applicants observed an increase in the numbers of CD110+ cells with all the receptors tested with Eltrombopag or Eltrombopag+low dose IL-2.

| Molecule | tolerability (circulating platelets) | activity in primary human T-cells [1] | expansion of CrGFR cells above that with media alone (primary human T-cells [2]) | survival and expansion of engineered T-cells (T-cells) | activity compared with the WT receptor (ovarian TIL) | activity in primary human T-cells (primary human T-cells [2]; conclusion) | proportion of viable cells with a distinct population of CD110+ cells (primary human T-cells [3]) | non-specific enrichment in IL2 alone ([4]; TIL042 with patient matched tumour cells) | Eltrombopag mediated survival/expansion of TIL ([4]; conclusion) |
| --- | --- | --- | --- | --- | --- | --- | --- | --- | --- |
| CC1=NN(c2ccc(C)c(C)c2)C(=O)/C1=N\Nc1cccc(-c2cccc(C(=O)O)c2)c1O [Eltrombopag] | without tolerability problems |  |  |  |  |  |  |  |  |
| B1 |  | can have activity | expansion | could permit controlled survival and expansion of T-cells |  |  |  |  |  |
| B2 |  |  | expansion |  | superior to that of the WT receptor | optimal activity | good proportion of viable cells with a distinct population of CD110+ cells | no non-specific enrichment | very specific |
